From publication PMC12077085, “Structural elements of cyanobacterial co-factor-independent phosphoglycerate mutase that mediate regulation by PirC” (mBio, 2025)
One block for each molecule: values may come before it.

Key:
[1] = target: T1, iPGAM (Slr1945), strep-iPGAM, iPGAM-WT (Synechocystis sp. PCC 6803, UniProt P74507, INS467TKKGI/DEL468-484, form not given); assay: coupled enolase / pyruvate kinase / LDH assay, NADH decrease at […] nm; format: biochemical; conditions: 50 µM MnCl2; without PirC
T1 construct: gene gpmI; N-terminal strep-tag; expressed in E. coli Lemo21(DE3), Strep-Tactin purified; calculated 60 kDa; monomer by mass photometry

[2] = target: T2, iPGAM (Slr1945), strep-iPGAM, iPGAM-WT (Synechocystis sp. PCC 6803, UniProt P74507); assay: as above; format: biochemical; conditions: 50 µM MnCl2; without PirC
T2 construct: gene gpmI; N-terminal strep-tag; expressed in E. coli Lemo21(DE3), Strep-Tactin purified; calculated 60 kDa; monomer by mass photometry

[3] = target: strep-tagged PirC (Sll0944, PII-interacting regulator of carbon metabolism) (Synechocystis sp. PCC 6803) (UniProt P77971); assay: mass photometry; Refeyn OneMP; strep-iPGAM and strep-PirC alone (iPGAM 10 nM) and mixed at an iPGAM-PirC ratio of 1:3
[4] = target: strep-tagged iPGAM (2,3-bisphosphoglycerate-independent phosphoglycerate mutase, Slr1945) of Synechocystis sp. PCC 6803, wild type (Synechocystis sp. PCC 6803) (UniProt P74507); assay: as above
[5] = target: His-tagged PirC (Sll0944, PII-interacting regulator of carbon metabolism) (Synechocystis sp. PCC 6803) (UniProt P77971); assay: BLI; Octet K2; His-tagged PirC immobilised on a Ni2+-NTA sensor, strep-iPGAM variants as analytes in various concentrations
[6] = target: strep-tagged iPGAM-ΔloopΔCT (Synechocystis iPGAM with the loop replaced by TKKGI and the C-terminal segment deleted) (Synechocystis sp. PCC 6803) (UniProt P74507)
[7] = target: strep-tagged iPGAM-ΔCT (Synechocystis iPGAM with the C-terminal segment deleted) (Synechocystis sp. PCC 6803) (UniProt P74507)
[8] = target: strep-tagged iPGAM (2,3-bisphosphoglycerate-independent phosphoglycerate mutase, Slr1945) of Synechocystis sp. PCC 6803, wild type (Synechocystis sp. PCC 6803) (UniProt P74507)
[9] = target: strep-tagged iPGAM-Δloop (Synechocystis iPGAM with the loop replaced by TKKGI) (Synechocystis sp. PCC 6803) (UniProt P74507)
purified protein = substrate: O=C(O)[C@H](O)COP(=O)(O)O; assay: purified protein; format: biochemical, Synechocystis sp. PCC 6803; conditions: 50 µM MnCl2; without PirC

Chain of His-tagged PirC (Sll0944, PII-interacting regulator of carbon metabolism) (Synechocystis sp. PCC 6803) (P77971 whole entry): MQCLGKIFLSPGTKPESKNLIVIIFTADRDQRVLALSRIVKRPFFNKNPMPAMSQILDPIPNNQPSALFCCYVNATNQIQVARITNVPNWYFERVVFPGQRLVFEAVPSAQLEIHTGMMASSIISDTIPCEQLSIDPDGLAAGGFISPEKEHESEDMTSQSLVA

Molecule: O=C(O)[C@H](O)COP(=O)(O)O [3-PGA]
Km [1]: 547 ± 59 µM | Km [2]: 242 ± 19 µM

Molecule: strep-tagged iPGAM-ΔloopΔCT (Synechocystis iPGAM with the loop replaced by TKKGI and the C-terminal segment deleted) (from UniProt P74507 1-532) (enzyme)
Kd [5]: 233 nM

Molecule: strep-tagged iPGAM-Δloop (Synechocystis iPGAM with the loop replaced by TKKGI) (from UniProt P74507 1-532) (enzyme)
Kd [5]: 203 nM

B2: iPGAM (Slr1945), strep-iPGAM, iPGAM-WT (Synechocystis sp. PCC 6803 substr. Kazusa) (protein)
chain: MAEAPIAPVVLVILDGWGYRPDTRANAIAQANTPIMDSLIAAYPNTLVNTSGKDVGLPKGQMGNSEVGHLNLGAGRVVPQELVRISDAIEDGTFFDNQALIEVCQRVRDRRGKLHLIGLCSDGGVHSHIDHLLGLIDLAKLQGISQLCIHAITDGRDTPTNEGAHFVQQIQAHLEKIGLGRIVSVSGRYYALDRDRRWDRVEKAYRVMTEDGVGDGRSAAQVIKDYYASDITDEFIPPTRIGAGAIASGDGVIFYNFRPDRARQLCYALVNPSFDGFPRERIQPLDFVTFTQYDPALPVVVAFEPQNLNNILGEIISRQGMKQFRTAETEKYPHVTYFFNGGLEQPFAGEDRELIQSPMVSTYDKAPQMSAKAVTDAVCRAMEKGIYSLVVVNYANPDMVGHTGKLKEAIQAIETVDLNLGRLLASAAKVGGTVLITADHGNAEYMSDESGNPWTAHTTNPVPFILVEGEGRKIPGHGGEVKLREGGKLADIAPTILDILQLPVPAEMTGKTLIDQPLVEIKANRTPVNLSR
notes: N-terminal strep-tag; expressed in E. coli Lemo21(DE3), Strep-Tactin purified; calculated 60 kDa; monomer by mass photometry
Km (purified protein): 265 ± 13 µM | Vmax (purified protein): 18.6 µmol/min/mg | kcat (purified protein): 18.6 ± 0.3 s⁻¹ | kcat/Km (purified protein): 70200 ± 3590 M⁻¹ s⁻¹

B3: iPGAM (Slr1945), strep-iPGAM, iPGAM-WT (Synechocystis sp. PCC 6803 substr. Kazusa; DEL468-484/INS467TKKGI) (protein)
chain: MAEAPIAPVVLVILDGWGYRPDTRANAIAQANTPIMDSLIAAYPNTLVNTSGKDVGLPKGQMGNSEVGHLNLGAGRVVPQELVRISDAIEDGTFFDNQALIEVCQRVRDRRGKLHLIGLCSDGGVHSHIDHLLGLIDLAKLQGISQLCIHAITDGRDTPTNEGAHFVQQIQAHLEKIGLGRIVSVSGRYYALDRDRRWDRVEKAYRVMTEDGVGDGRSAAQVIKDYYASDITDEFIPPTRIGAGAIASGDGVIFYNFRPDRARQLCYALVNPSFDGFPRERIQPLDFVTFTQYDPALPVVVAFEPQNLNNILGEIISRQGMKQFRTAETEKYPHVTYFFNGGLEQPFAGEDRELIQSPMVSTYDKAPQMSAKAVTDAVCRAMEKGIYSLVVVNYANPDMVGHTGKLKEAIQAIETVDLNLGRLLASAAKVGGTVLITADHGNAEYMSDESGNPWTAHTTNPVPFILVTKKGIEGGKLADIAPTILDILQLPVPAEMTGKTLIDQPLVEIKANRTPVNLSR
notes: as for B2
Km (purified protein): 1087 ± 141 µM | Vmax (purified protein): 6.86 µmol/min/mg | kcat (purified protein): 6.7 ± 0.4 s⁻¹ | kcat/Km (purified protein): 6190 ± 874 M⁻¹ s⁻¹

Now from value to molecule:

stoichiometry N [3]: 6 | stoichiometry N (PirC monomers per iPGAM) [4]: 3
Molecule: strep-tagged PirC (Sll0944, PII-interacting regulator of carbon metabolism) (from UniProt P77971 1-164) (natural protein)

Kd [5]: 114 nM
Molecule: strep-tagged iPGAM-ΔCT (Synechocystis iPGAM with the C-terminal segment deleted) (from UniProt P74507 1-532) (enzyme)

IC50 of PirC on iPGAM activity, coupled enzyme assay at 0.75 mM 3-PGA (50 to 1,600 nM PirC) [6]: 164 nM | IC50 of PirC on iPGAM activity, coupled enzyme assay at 0.75 mM 3-PGA (50 to 1,600 nM PirC) [7]: 1070 nM | IC50 of PirC on iPGAM activity, coupled enzyme assay at 0.75 mM 3-PGA (50 to 1,600 nM PirC) [8]: 120 nM | IC50 of PirC on iPGAM activity, coupled enzyme assay at 0.75 mM 3-PGA (50 to 1,600 nM PirC) [9]: 217 nM
Molecule: His-tagged PirC (Sll0944, PII-interacting regulator of carbon metabolism) (from UniProt P77971 1-164) (natural protein)

Kd [5]: 378 nM
B1: strep-tagged iPGAM (2,3-bisphosphoglycerate-independent phosphoglycerate mutase, Slr1945) of Synechocystis sp. PCC 6803, wild type (enzyme)
chain: B2 chain
